Experimental data taken from patent US20240026004A1 (SHANGHAI HUAOTA BIOPHARMACEUTICAL, published 2024).
Where a chain is given by its changes, count along the chain named.

Legend:
Monkey PD-L1 = biological target: T1, Monkey PD-L1 (monkey); assay: SPR (BIAcore), HB0028 captured on anti-human IgG (Fc) chip, PD-L1 as analyte, 1:1 fit
T1 construct: also called PD-L1 in monkeys

[1] = biological target: Human PD-L1 (BIAcore analyte) (human, UniProt Q9NZQ7 19-238, limits assumed); assay: as above
[2] = biological target: T2, human PD-L1 on CHO-K1 cells (human, UniProt Q9NZQ7 19-290); assay: flow cytometry on CHO-K1 cells overexpressing human PD-L1, PE anti-human IgG detection, median fluorescence intensity
T2 construct: whole, on cells; also called CHO-K1 cells overexpressing human PD-L1; CHO-K1-OS8-PD-L1-8D6 cells

Mouse precursor TGF-β1 = biological target: T3, Mouse precursor TGF-β1 (mouse, UniProt P04202 30-390, limits assumed); assay: SPR (BIAcore), HB0028 captured on Protein A chip, TGF-β protein as analyte
T3 construct: Latent/precursor form as printed; also called Mouse Latent TGF-β1

Human LAP = biological target: T4, Human LAP (human, UniProt P01137 30-278); assay: as above
T4 construct: domain: LAP; also called precursor of TGF-β1 (Human LAP)

Mouse/Rat TGF-β2 = biological target: T5, Mouse/Rat TGF-β2 (mouse/rat, UniProt P27090 303-414); assay: SPR (BIAcore), HB0028 captured on Protein A chip, TGF-β protein as analyte, 1:1 fit
T5 sequence (looked up): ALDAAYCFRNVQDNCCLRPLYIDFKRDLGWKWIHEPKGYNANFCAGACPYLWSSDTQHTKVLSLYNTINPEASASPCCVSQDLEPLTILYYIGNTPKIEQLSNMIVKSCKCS

Mouse/Rat TGF-β1 = Mouse/Rat TGF-β1 (mouse/rat, UniProt P04202 279-390); assay: as above
human TGF-β1 [3] = biological target: T6, human TGF-β1 (human, UniProt P01137 279-390); assay: as above
T6 construct: also called TGF-β1 (ACRO, TG1-H4212); free TGF-β protein

Human TGF-β2 = biological target: T7, Human TGF-β2 (human, UniProt P61812 303-414); assay: as above
T7 sequence (looked up): T5 sequence (looked up) with T59S, K60R, N94K

[4] = biological target: T2, human PD-L1 on CHO-K1 cells; assay: dual-target flow cytometry: sample pre-mixed with 3 µg/ml human TGF-β1, then CHO-K1 cells overexpressing human PD-L1, detection with PE anti-human TGF-β1 antibody (signal needs PD-L1 and TGF-β1 bound at once)
human TGF-β1 [5] = biological target: T6, human TGF-β1; assay: ELISA, TGF-β1 coated at 0.5 µg/ml, HRP anti-human IgG detection, OD450
Rabbit PD-L1 = biological target: T8, Rabbit PD-L1 (rabbit, UniProt G1SUI3 19-236); assay: SPR (BIAcore), HB0028 captured on anti-human IgG (Fc) chip, PD-L1 as analyte
T8 construct: also called PD-L1 in rabbits
T8 sequence: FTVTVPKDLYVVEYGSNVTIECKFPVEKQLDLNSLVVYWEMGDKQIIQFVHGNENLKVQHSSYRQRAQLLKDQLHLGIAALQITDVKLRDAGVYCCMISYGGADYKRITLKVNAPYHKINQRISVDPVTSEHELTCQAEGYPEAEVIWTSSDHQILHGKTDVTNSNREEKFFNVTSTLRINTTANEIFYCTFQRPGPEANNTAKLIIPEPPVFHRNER

Mouse PD-L1 = biological target: T9, Mouse PD-L1 (mouse, UniProt Q9EP73 19-238, limits assumed); assay: as above
T9 construct: also called PD-L1 in mice

Rat PD-L1 = biological target: T10, Rat PD-L1 (rat, UniProt D4AE25 19-239); assay: as above
T10 construct: also called PD-L1 in rats

human TGF-β3 = biological target: T11, human TGF-β3 (human, UniProt P10600 301-412); assay: ELISA, TGF-β3 coated at 0.5 µg/ml, HRP anti-human IgG detection, OD450
T11 construct: also called TGF-β3 (R&D, 8420-B3-025)
T11 sequence (looked up): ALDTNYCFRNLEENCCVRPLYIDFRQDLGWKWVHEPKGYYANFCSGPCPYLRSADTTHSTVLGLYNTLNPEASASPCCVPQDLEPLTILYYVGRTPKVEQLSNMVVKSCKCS

T6 sequence (P01137 279-390 limits assumed): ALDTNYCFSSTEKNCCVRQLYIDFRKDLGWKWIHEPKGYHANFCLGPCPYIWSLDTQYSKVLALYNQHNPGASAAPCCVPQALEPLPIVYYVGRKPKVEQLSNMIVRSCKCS
T2 sequence (Q9NZQ7 19-290): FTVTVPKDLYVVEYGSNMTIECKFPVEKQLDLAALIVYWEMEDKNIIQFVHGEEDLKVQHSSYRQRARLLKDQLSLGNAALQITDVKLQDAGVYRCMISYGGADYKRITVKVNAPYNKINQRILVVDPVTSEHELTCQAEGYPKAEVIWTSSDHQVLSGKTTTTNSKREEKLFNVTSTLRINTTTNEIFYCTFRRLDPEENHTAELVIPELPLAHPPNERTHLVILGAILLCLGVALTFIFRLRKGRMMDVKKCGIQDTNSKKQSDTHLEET
T9 sequence (Q9EP73 19-238 limits assumed): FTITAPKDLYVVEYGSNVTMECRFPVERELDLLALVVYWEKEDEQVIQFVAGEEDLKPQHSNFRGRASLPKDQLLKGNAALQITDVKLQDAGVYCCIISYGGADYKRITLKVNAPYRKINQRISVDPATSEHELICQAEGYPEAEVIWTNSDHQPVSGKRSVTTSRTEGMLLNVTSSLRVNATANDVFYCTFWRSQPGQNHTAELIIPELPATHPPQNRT
T10 sequence (D4AE25 entry or part of it limits assumed): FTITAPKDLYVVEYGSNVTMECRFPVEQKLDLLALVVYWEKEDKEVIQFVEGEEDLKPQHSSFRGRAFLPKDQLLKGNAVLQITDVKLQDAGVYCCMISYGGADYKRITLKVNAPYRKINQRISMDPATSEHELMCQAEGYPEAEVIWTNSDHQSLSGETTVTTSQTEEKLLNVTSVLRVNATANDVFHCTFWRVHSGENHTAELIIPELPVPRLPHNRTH
T4 sequence (P01137 30-278 limits assumed): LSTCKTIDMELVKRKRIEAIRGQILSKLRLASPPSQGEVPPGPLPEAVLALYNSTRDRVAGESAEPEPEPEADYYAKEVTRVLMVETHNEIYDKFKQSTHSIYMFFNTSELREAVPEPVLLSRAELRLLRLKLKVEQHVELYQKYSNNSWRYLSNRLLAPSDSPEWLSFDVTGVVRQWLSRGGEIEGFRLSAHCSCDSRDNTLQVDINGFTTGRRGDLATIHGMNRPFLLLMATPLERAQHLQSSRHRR
T3 sequence (P04202 30-390 limits assumed): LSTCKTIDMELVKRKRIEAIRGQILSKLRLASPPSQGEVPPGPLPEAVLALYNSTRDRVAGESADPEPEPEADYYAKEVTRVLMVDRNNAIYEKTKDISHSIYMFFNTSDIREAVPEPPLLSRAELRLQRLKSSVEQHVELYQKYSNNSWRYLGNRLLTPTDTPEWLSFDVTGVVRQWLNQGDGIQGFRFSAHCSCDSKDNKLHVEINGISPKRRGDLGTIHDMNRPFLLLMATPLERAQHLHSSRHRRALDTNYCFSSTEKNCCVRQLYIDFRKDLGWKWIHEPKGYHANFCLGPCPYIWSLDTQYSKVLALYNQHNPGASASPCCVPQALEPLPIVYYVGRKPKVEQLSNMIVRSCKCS
Sequence of Human PD-L1 (BIAcore analyte) (Q9NZQ7 19-238 limits assumed): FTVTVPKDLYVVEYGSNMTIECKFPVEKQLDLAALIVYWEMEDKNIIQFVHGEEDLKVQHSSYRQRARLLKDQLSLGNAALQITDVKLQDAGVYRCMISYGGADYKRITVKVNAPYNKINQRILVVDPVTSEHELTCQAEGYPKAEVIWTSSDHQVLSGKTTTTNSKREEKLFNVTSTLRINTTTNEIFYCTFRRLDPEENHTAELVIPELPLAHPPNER
Sequence of Mouse/Rat TGF-β1 (P04202 279-390 limits assumed): as the sequence (P01137 279-390 limits assumed) above, with A75S counted along it

B1: HB0028 (bispecific antibody, human IgG1, kappa)
heavy: not shown
light: DVVMTQTPLSLSVTPGQPASISCKSSQSLANSYGNTYLSWYLHKPGQSPQLLIYGISNRFSGVPDRFSGSGSGTDFTLKISRVEAEDVGVYYCLQGTHQPPTFGQGTKLEIKRTVAAPSVFIFPPSDEQLKSGTASVVCLLNNFYPREAKVQWKVDNALQSGNSQESVTEQDSKDSTYSLSSTLTLSKADYEKHKVYACEVTHQGLSSPVTKSFNRGEC
notes: also called N-fusion PD-L1/TGF-β bispecific antibody; heavy chain 500054 + light chain 400085
B1 was tested. Which Kd (Monkey PD-L1) did it give?
Its Kd is 5.87 nM.

And the Kd [1]?
The Kd was 2.45 nM.

And the EC50 [2]?
Its EC50 is 3.77 nM.

Does B1 bind (Mouse precursor TGF-β1)?
Result: no binding

Does B1 bind (Human LAP)?
Result: no binding

What about the Kd (Mouse/Rat TGF-β2) of the same binder?
Its Kd is 1.97 nM.

And the Kd (Mouse/Rat TGF-β1)?
Its Kd is 0.00275 nM.

What about the Kd (human TGF-β1 [3]) of the same binder?
The Kd was 0.0114 nM.

And the Kd (Human TGF-β2)?
Its Kd is 1.56 nM.

What about the EC50 [4] of the same binder?
Its EC50 is 4.22 nM.

And the EC50 (human TGF-β1 [5])?
The EC50 was 0.347 nM.

Does B1 bind (Rabbit PD-L1)?
Result: no binding

Does B1 bind (Mouse PD-L1)?
Result: no binding

Does B1 bind (Rat PD-L1)?
Result: no binding

B2: HB0029 (bispecific antibody, human IgG1, kappa)
heavy: not shown
light: B1 light
notes: Heavy chain from N to C: VH of HB0023, wild-type human IgG1 constant region, GS linker, human TGF-βRII ECD 24-159; Same light chain as HB0028; also called C-fusion PD-L1/TGF-β bispecific antibody; heavy chain 500055 + light chain 400085
With B2 as the binder, how does the EC50 [2] read?
The EC50 was 1.85 nM.

And the EC50 [4]?
The EC50 was 1.61 nM.

What about the EC50 (human TGF-β1 [5]) of the same binder?
The EC50 was 0.955 nM.

And the EC50 (human TGF-β3)?
Its EC50 is 1.51 nM.

B3: TGFβRII (Fc fusion)
chain: TIPPHVQKSVNNDMIVTDNNGAVKFPQLCKFCDVRFSTCDNQKSCMSNCSITSICEKPQEVCVAVWRKNDENITLETVCHDPKLPYHDFILEDAASPKCIMKEKKKPGETFFMCSCSSDECNDNIIFSEEYNTSNPD
B3 was tested. Which EC50 (human TGF-β1 [5]) did it give?
Its EC50 is 0.652 nM.
